Experimental data reported in patent US20240101668A1 (WUGEN, published 2024).

Assays:
[1] = target: T1, huCD33-G69-Fc recombinant protein (human, UniProt P20138 18-259); test: BLI;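 further: biolayer interferometry: scFvs captured from periplasmic extracts on anti-V5-loaded streptavidin biosensors, antigen association for 2 min, buffer dissociation for 5 min, 1:1 Langmuir fit giving off-rate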
T1 construct: extracellular domain; also called CD33 R69G

[2] = target: T2, huCD33-R69 stably expressed on Jurkat cells (human, UniProt P20138 18-364); test: FACS on cells;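 further: fixed Jurkat lines probed with myc-tagged scFv periplasmic extracts, anti-myc PE flow cytometry, PE MFI fold binned − <2, + 2–10, ++ 10–30, +++ >30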
T2 construct: whole, on cells; >200,000 receptors per cell; also called CD33 WT; CD33^ARG69
Method: (§1) Jurkat cells were engineered to stably express either the huCD33-R69 or huCD33-G69 variant at >200,000 receptors per cell. Parental, huCD33-R69, and huCD33-G69 Jurkat cell lines were stained with differing levels of CellTrace Violet Cell Proliferation Kit (ThermoFisher, cat. #C34557) to barcode each cell line. Barcoded Jurkat cell lines were fixed with paraformaldehyde and incubated with myc-labeled scFv periplasmic extracts and a secondary anti-myc PE-conjugated monoclonal antibody. Appropriate positive and negative controls were used. Stained cells were analyzed by flow cytometry (CytoFLEX, Beckman Coulter, Inc.) and binding was assessed by change in PE mean fluorescence intensity (MFI) of the barcoded cell populations.
(§2) Data is disclosed below in Table 16c, reporting FACS fold change over parental as (−), indicating <2 fold; (+), indicating 2-10 fold; (++), indicating 10-30 fold; and (+++), indicating >30 fold.

[3] = target: T3, huCD33-G69 stably expressed on Jurkat cells (human, UniProt P20138 18-364); test: FACS on cells;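 further: fixed Jurkat lines probed with myc-tagged scFv periplasmic extracts, anti-myc PE flow cytometry, PE MFI fold binned − <2, + 2–10, ++ 10–30, +++ >30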
T3 construct: whole, on cells; >200,000 receptors per cell; also called CD33 Mutant; CD33 R69G
Method: as §1, §2

[4] = target: T4, huFLT3-T227 stably expressed on Ramos cells (human, UniProt P36888 27-993); test: FACS on cells
T4 construct: whole, on cells; also called FLT3 WT
Method: (§3) For FLT3, Ramos cells were engineered to stably express either the huFLT3-T227 or huFLT3-M227 variant at >200,000 receptors per cell. Parental, huFLT3-T227, and huFLT3-M227 Ramos cell lines were stained with differing levels of CellTrace Violet Cell Proliferation Kit (ThermoFisher, cat. #C34557) to barcode each cell line. Barcoded Ramos cell lines were fixed with paraformaldehyde and incubated with myc-labeled scFv periplasmic extracts and a secondary anti-myc PE-conjugated monoclonal antibody. Appropriate positive and negative controls were used. Stained cells were analyzed by flow cytometry (CytoFLEX, Beckman Coulter, Inc.) and binding was assessed by change in PE mean fluorescence intensity (MFI) of the barcoded cell populations.

[5] = target: T5, huFLT3-M227 stably expressed on Ramos cells (human, UniProt P36888 27-993); test: FACS on cells
T5 construct: whole, on cells; also called FLT3 Mutant
Method: as §3

T1 sequence (P20138 18-259 R69G): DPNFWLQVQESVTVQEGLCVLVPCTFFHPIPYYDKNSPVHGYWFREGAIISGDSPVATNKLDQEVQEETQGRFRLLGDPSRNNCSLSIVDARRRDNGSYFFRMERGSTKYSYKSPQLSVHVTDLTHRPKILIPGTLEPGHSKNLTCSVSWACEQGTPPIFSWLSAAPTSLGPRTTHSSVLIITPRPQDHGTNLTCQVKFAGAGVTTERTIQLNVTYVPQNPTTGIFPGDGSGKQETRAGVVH
T3 sequence (P20138 18-364 R69G): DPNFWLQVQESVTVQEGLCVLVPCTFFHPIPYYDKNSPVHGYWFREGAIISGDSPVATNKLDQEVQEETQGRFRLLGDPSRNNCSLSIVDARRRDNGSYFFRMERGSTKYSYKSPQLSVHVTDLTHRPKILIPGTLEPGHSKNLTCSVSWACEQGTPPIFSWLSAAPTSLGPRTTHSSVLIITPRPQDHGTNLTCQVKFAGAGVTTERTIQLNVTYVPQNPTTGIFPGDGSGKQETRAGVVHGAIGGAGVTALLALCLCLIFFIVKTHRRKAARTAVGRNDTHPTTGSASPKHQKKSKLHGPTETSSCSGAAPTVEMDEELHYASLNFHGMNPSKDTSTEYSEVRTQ
T2 sequence (P20138 18-364): as the sequence (P20138 18-364 R69G) above, with G52R counted along it

Binder | binding result [1] | FACS geometric mean fold change over Jurkat parental [2] [fold] | FACS geometric mean fold change over Jurkat parental [3] [fold] | FACS geometric mean fold change over Jurkat parental [4] [fold] | FACS geometric mean fold change over Jurkat parental [5] [fold]
Polypeptide No. 207 (scFv, V domains shown, scFv) VH: QVQLVQSGAEVKKPGASVKVSCKASGYTFTNYYMHWVRQAPGQGLEWMGWMNPNSGNTGYAQRFQGRVTMTRDTSTSTVYMELSSLRSEDTAVYYCAKSHYYYFYGMDVWGQGTTVTVSS VL: DIQMTQSPSSLSASVGDRVTITCQASHDISKYLNWYQQKPGKAPKLLIYAASILQSGVPSRFSGSGSGTDFTLTISSLQPEDFATYYCQQSYSTPYTFGQGTKLEIKR |  |  |  | 10 to 30 | 10 to 30
Polypeptide No. 208 (scFv, V domains shown, scFv) VH: QVQLVQSGAEVKKPGASVKVSCKASGGTFSSRSISWVRQAPGQGLEWMGIINPSGGGTLYAQKFQGRVTMTRDTSTSTVYMELSSLRSEDTAVYYCAKDMDGWSDAFDIWGQGTTVTVSS VL: EIVMTQSPATLSVSPGERATLSCRASQSLSNIYLAWYQQKPGQAPRLLIYDVSSRAAGIPARFSGSGSGTEFTLTISSLQSEDFAVYYCQQYATSPLTFGGGTKVEIKR |  |  |  | 10 to 30 | 10 to 30
Polypeptide No. 213 (scFv, V domains shown, scFv) VH: QVQLVQSGAEVKKPGASVKVSCKASGYTFSRYYMSWVRQAPGQGLEWMGWMNPNSGNTGYAQKFQGRVTMTRDTSTSTVYMELSSLRSEDTAVYYCARTRFAAQPHNWHFDLWGRGTLVTVSS VL: DIQMTQSPSSLSASVGDRVTITCRASQSISSYLNWYQQKPGKAPKLLIYDASNLKTGVPSRFSGSGSGTDFTLTISSLQPEDFATYYCQQSYSTPLTFGPGTKVDIKR |  |  |  | 10 to 30 | 10 to 30
Polypeptide No. 212 (scFv, V domains shown, scFv) VH: QVQLVQSGAEVKKPGSSVKVSCKASGYTFTGYYMHWVRQAPGQGLEWMGGIIPILGTANNAQKFQGRVTITADESTSTAYMELSSLRSEDTAVYYCARAPWGTFDYWGQGTLVTVSS VL: EIVMTQSPATLSVSPGERATLSCRASQSVSSSQLAWYQQKPGQAPRLLIYDTSTRATGIPARFSGSGSGTEFTLTISSLQSEDFAVYYCQQYDNSLWTFGQGTRLEIKR |  |  |  | 10 to 30 | 10 to 30

Continued, values first:

binding result [1] | FACS geometric mean fold change over Jurkat parental [2] [fold] | FACS geometric mean fold change over Jurkat parental [3] [fold] | FACS geometric mean fold change over Jurkat parental [4] [fold] | FACS geometric mean fold change over Jurkat parental [5] [fold] | Binder
binds | 2 to 10 | 2 to 10 |  |  | Polypeptide No. 142 (scFv, V domains shown, scFv) VH: EVQLLESGGGLVQPGGSLRLSCAASGFTFSSYWMHWVRQAPGKGLEWVAVISYDGSDKYYADSVKGRFTISRDNSKNTLYLQMNSLRAEDTAVYYCARGLGGTTGTADFDYWGQGTLVTVSS VL: not shown
binds | 2 to 10 | 2 to 10 |  |  | Polypeptide No. 143 (scFv, V domains shown, scFv) VH: QVQLVQSGAEVKKPGASVKVSCKASGYTFTGYYMHWVRQAPGQGLEWMGWMNANSGNTGFAQKFQGRVTMTRDTSTSTVYMELSSLRSEDTAVYYCARDSSSWLSGGGWFDPWGQGTLVTVSS VL: DIQMTQSPSSLSASVGDRVTITCRASQSIGTYLSWYQQKPGKAPKLLIYAASSLQSGVPSRFSGSGSGTDFTLTISSLQPEDFATYYCQQSYSSPITFGQGTKLEIKR
 |  |  | 10 to 30 | 10 to 30 | Polypeptide No. 218 (scFv, V domains shown, scFv) VH: QVQLVQSGAEVKKPGASVKVSCKASGYSFTTHYMHWVRQAPGQGLEWMGIINPSGGSTRYAQKFQGRVTMTRDTSTSTVYMELSSLRSEDTAVYYCARGSSYYYYGVDVWGKGTTVTVSS VL: DIQMTQSPSSLSASVGDRVTITCRASQSISTWLAWYQQKPGKAPKLLIYAASSLQSGVPSRFSGSGSGTDFTLTISSLQPEDFATYYCQQAISFPLTFGGGTKVEIKR
 |  |  | 10 to 30 | 10 to 30 | Polypeptide No. 215 (scFv, V domains shown, scFv) VH: QVQLVQSGAEVKKPGASVKVSCKASGYTFTGYRMHWVRQAPGQGLEWMGWINPNSGGTNYAQKFQGRVTMTRDTSTSTVYMELSSLRSEDTAVYYCAKGGLDWRNWYFDLWGRGTLVTVSS VL: DIQMTQSPSSLSASVGDRVTITCRASQGISSYLAWYQQKPGKAPKLLIYAASTLQSGVPSRFSGSGSGTDFTLTISSLQPEDFATYYCQQSYSTPLTFGGGTKVEIKR
